From patent US20240060126

Legend:
[1] = molecular target: MspA-((Del-L74/G75/D118/L119)D56Y/E59R/L88N/D90N/D91N/Q126R/D134R/E139K)8
[2] = molecular target: MspA-((Del-L74/G75/D118/L119)D56N/E59Q/L88N/D90N/D91N/Q126R/D134R/E139K)8
[3] = molecular target: MspA-((Del-N79/F80N113N114)D56N/E59R/G75S/G77S/L88N/D90N/D91N/D118R/Q126R/D134R/E139K)8
[4] = molecular target: MspA-((Del-L74/G75/D118/L119)G1A/D56N/E59F/L88N/D90N/D91N/Q126R/D134R/E139K)8
[5] = molecular target: MspA-((Del-G75N76/A117/D118)D56N/E59R/G77S/L88N/D90N/D91N/Q126R/D134R/E139K)8
[6] = molecular target: MspA-((Del-L74/G75/D118/L119)D56N/E59S/L88N/D90N/D91N/Q126R/D134R/E139K)8
[7] = molecular target: MspA-((Del-L74/G75/D118/L119)D56N/E59F/L88N/D90N/D91N/Q126R/D134R/E139K)8
[8] = molecular target: MspA-((Del-L74/G75/D118/L119)D56N/L88N/D90N/D91N/Q126R/D134R/E139K)8
[9] = molecular target: MspA-((Del-L74/G75/D118/L119)E59F/L88N/D90N/D91N/Q126R/D134R/E139K)8
[10] = molecular target: MspA-((Del-L74/G75/D118/L119)E57R/E59N/L88N/D90N/D91N/Q126R/D134R/E139K)8
[11] = molecular target: MspA-((Del-L74/G75/D118/L119)D56N/E59R/L88N/D90N/D91N/Q126R/D134R/E139K)8
[12] = molecular target: MspA-((Del-L74/G75/D118/L119)D56N/E59W/L88N/D90N/D91N/Q126R/D134R/E139K)8

B1: T4 Dda-E94C/C109A/C136A/A360C (SEQ ID NO: 24 with mutations E94C/C109A/C136A/A360C) (protein)
chain: MTFDDLTEGQKNAFNIVMKAIKEKKHHVTINGPAGTGKTTLTKFIIEALISTGETGIILAAPTHAAKKILSKLSGKEASTIHSILKINPVTYECNVLFEQKEVPDLAKARVLICDEVSMYDRKLFKILLSTIPPWATIIGIGDNKQIRPVDPGENTAYISPFFTHKDFYQCELTEVKRSNAPIIDVATDVRNGKWIYDKVVDGHGVRGFTGDTALRDFMVNYFSIVKSLDDLFENRVMAFTNKSVDKLNSIIRKKIFETDKDFIVGEIIVMQEPLFKTYKIDGKPVSEIIFNNGQLVRIIEAEYTSTFVKARGVPGEYLIRHWDLTVETYGDDEYYREKIKIISSDEELYKFNLFLGKTCETYKNWNKGGKAPWSDFWDAKSQFSKVKALPASTFHKAQGMSVDRAFIYTPCIHYADVELAQQLLYVGVTRGRYDVFYV
Average Signal to Noise (S2N) [1]: 12.9
Mean Current Range [1]: 15.9 pA
Mean Noise of the Signal [1]: 1.24
Median Current Range [1]: 15.9 pA
Median Noise of the Signal [1]: 1.19
Median S2N [1]: 13.3
Percentage of complement slipping forwards [1]: 0.6%
Standard Deviation of S2N [1]: 1.12
Standard Deviation of the Current Range [1]: 1.83 pA
Standard Deviation of the Noise of the Signal [1]: 0.22
Average Signal to Noise (S2N) [2]: 12.8
Mean Current Range [2]: 15.6 pA
Mean Noise of the Signal [2]: 1.22
Median Current Range [2]: 15.5 pA
Median Noise of the Signal [2]: 1.16
Median S2N [2]: 13.3
Percentage of complement slipping forwards [2]: 0.55%
Standard Deviation of S2N [2]: 0.86
Standard Deviation of the Current Range [2]: 1.72 pA
Standard Deviation of the Noise of the Signal [2]: 0.25
Average Signal to Noise (S2N) [3]: 13.1
Mean Current Range [3]: 15.8 pA
Mean Noise of the Signal [3]: 1.21
Median Current Range [3]: 15.8 pA
Median Noise of the Signal [3]: 1.13
Standard Deviation of the Current Range [3]: 1.9 pA
Standard Deviation of the Noise of the Signal [3]: 0.28
slips forward per kilobase [4]: less than 5 slips forward per kilobase
Average Signal to Noise (S2N) [5]: 12.5
Mean Current Range [5]: 15.8 pA
Mean Noise of the Signal [5]: 1.27
Median Current Range [5]: 15.8 pA
Median Noise of the Signal [5]: 1.21
Standard Deviation of the Current Range [5]: 1.69 pA
Standard Deviation of the Noise of the Signal [5]: 0.24
Average Signal to Noise (S2N) [6]: 11.4
Mean Current Range [6]: 15 pA
Mean Noise of the Signal [6]: 1.31
Median Current Range [6]: 14.9 pA
Median Noise of the Signal [6]: 1.27
Median S2N [6]: 11.3
Percentage of complement slipping forwards [6]: 0.43%
Standard Deviation of S2N [6]: 0.29
Standard Deviation of the Current Range [6]: 1.7
Standard Deviation of the Noise of the Signal [6]: 0.23
Average Signal to Noise (S2N) [7]: 12.8
Mean Current Range [7]: 15.8 pA
Mean Noise of the Signal [7]: 1.24
Median Current Range [7]: 15.7 pA
Median Noise of the Signal [7]: 1.17
Median S2N [7]: 12.8
Percentage of complement slipping forwards [7]: 0.25%
Standard Deviation of S2N [7]: 0.12
Standard Deviation of the Current Range [7]: 1.86 pA
Standard Deviation of the Noise of the Signal [7]: 0.27
Average Signal to Noise (S2N) [8]: 12.3
Mean Current Range [8]: 14.7 pA
Mean Noise of the Signal [8]: 1.2
Median Current Range [8]: 14.6 pA
Median Noise of the Signal [8]: 1.17
Standard Deviation of the Current Range [8]: 1.66 pA
Standard Deviation of the Noise of the Signal [8]: 0.15
Average Signal to Noise (S2N) [9]: 11.4
Mean Current Range [9]: 15.7 pA
Mean Noise of the Signal [9]: 1.37
Median Current Range [9]: 15.7 pA
Median Noise of the Signal [9]: 1.33
Median S2N [9]: 11.8
Percentage of complement slipping forwards [9]: 0.3%
Standard Deviation of S2N [9]: 0.64
Standard Deviation of the Current Range [9]: 1.81 pA
Standard Deviation of the Noise of the Signal [9]: 0.22
Average Signal to Noise (S2N) [10]: 10.6
Mean Current Range [10]: 14.7 pA
Mean Noise of the Signal [10]: 1.4
Median Current Range [10]: 14.6 pA
Median Noise of the Signal [10]: 1.22
Standard Deviation of the Current Range [10]: 1.88
Standard Deviation of the Noise of the Signal [10]: 0.45
Average Signal to Noise (S2N) [11]: 12.5
Mean Current Range [11]: 15.3 pA
Mean Noise of the Signal [11]: 1.22
Median Current Range [11]: 15.3 pA
Median Noise of the Signal [11]: 1.17
Percentage of complement slipping forwards [11]: 0.49%
Standard Deviation of the Current Range [11]: 1.66 pA
Standard Deviation of the Noise of the Signal [11]: 0.2
slips forward per kilobase [11]: less than 5 slips forward per kilobase
Average Signal to Noise (S2N) [12]: 11
Mean Current Range [12]: 15.2 pA
Mean Noise of the Signal [12]: 1.38
Median Current Range [12]: 15.1 pA
Median Noise of the Signal [12]: 1.32
Standard Deviation of the Current Range [12]: 1.85
Standard Deviation of the Noise of the Signal [12]: 0.26
